Results on 7 proteins are retold here after publication PMC6829520.

The nature of data set [1]: TEVC, Xenopus oocytes, +20 mV, 48 h. Conditions: glycan lost; control: wild type.
A further data set is described as follows: TEVC, Xenopus oocytes. Conditions: glycan lost.
Data set [2] is described as follows: TEVC pulse step protocol, oocytes, 48 h. Conditions: glycan lost; control: wild type.
Data set [3] in a line: TEVC, oocytes, 24 h versus 48 h. To be noted: glycan lost; control: wild type.
A short description of data set [4]: surface biotinylation, streptavidin pull-down, immunoblot, HEK-293T. To be noted: glycan lost; control: wild type. For orientation: In western blotting, separated proteins are transferred to a membrane and probed.
Data set [5] can be described thus: eGFP fluorescence microscopy with WGA membrane stain, HeLa. Conditions: glycan lost; control: hTREK-1-WT-eGFP.
Data set [6] is described as follows: TEVC, Xenopus oocytes, +20 mV, 24/48 h. Conditions: glycan lost; control: DMSO vehicle.
Data set [7] in a line: TEVC pulse step protocol, oocytes. To be noted: glycan lost; control: DMSO vehicle.

B1: hTREK-1 / hK2P2.1: N110Q (protein)
parent chain: MLPSASRERPGYRAGVAAPDLLDPKSAAQNSKPRLSFSTKPTVLASRVESDTTINVMKWKTVSTIFLVVVLYLIIGATVFKALEQPHEISQRTTIVIQKQTFISQHSCVNSTELDELIQQIVAAINAGIIPLGNTSNQISHWDLGSSFFFAGTVITTIGFGNISPRTEGGKIFCIIYALLGIPLFGFLLAGVGDQLGTIFGKGIAKVEDTFIKWNVSQTKIRIISTIIFILFGCVLFVALPAIIFKHIEGWSALDAIYFVVITLTTIGFGDYVAGGSDIEYLDFYKPVVWFWILVGLAYFAAVLSMIGDWLRVISKKTKEEVGEFRAHAAEWTANVTAEFKETRRRLSVEIYDKFQRATSIKRKLSAELAGNHNQELTPCRRTLSVNHLTSERDVLPPLLKTESIYLNGLTPHCAGEEIAVIENIK
Turning to B1, in data set [1], the “other: channel current, percent_of_wt” value is “decreases”. For the same protein, in the data set “TEVC, Xenopus oocytes” (control: wild type), the “other: resting membrane potential” value is on record as “changes”. The “other: current-voltage relationship” value in data set [2] is on record as “no change”. In data set [3], the “other: current at 24 h relative to 48 h (onset of current), other: 24 h current as % of 48 h current” value is recorded as “decreases, 54 vs 57 % to 66%”. Also, the “localisation_or_trafficking, other: reduction of surface fraction relative to WT” value in data set [4] was “decreases, reduction of surface protein expression (about 16 % for both, N110Q and N134Q)”. The localisation_or_trafficking entry in data set [5] is listed as “no change”.

B2: hTREK-1 / hK2P2.1: tunicamycin incubation (0.75 or 1.5 mg/L) (protein)
parent chain: B1 parent chain
Take B2: the “other: channel current” value in data set [6] is recorded as “decreases, tunicamycin treatment (incubation with 1.5 mg/L) resulted in a current reduction of 79.4%”.

B3: hTREK-1 / hK2P2.1: tunicamycin coinjection (2 or 3 ng per oocyte) (protein)
parent chain: B1 parent chain
B3: in data set [6], the “other: channel current” value was “decreases”.

B4: hTREK-1 / hK2P2.1: tunicamycin (protein)
parent chain: B1 parent chain
With B4, in data set [7], the “other: current-voltage relationship” value is reported as “no change”.

B5: hTREK-1 / hK2P2.1: N134Q (protein)
parent chain: B1 parent chain
Consider B5, for which the “other: channel current, percent_of_wt” value in data set [1] was “decreases”. Besides, in the data set “TEVC, Xenopus oocytes” (control: wild type), the “other: resting membrane potential” value is recorded as “changes”. Also, in data set [2], the “other: current-voltage relationship” value is listed as “no change”. Moreover, the “other: current at 24 h relative to 48 h (onset of current), other: 24 h current as % of 48 h current” value in data set [3] was “decreases, 41 vs 57 % to 66%”. The “localisation_or_trafficking, other: reduction of surface fraction relative to WT” value in data set [4] is “decreases”. For the same protein, the localisation_or_trafficking result in data set [5] was “no change”.

B6: hTREK-1 / hK2P2.1: tunicamycin (incubation or injection) (protein)
parent chain: B1 parent chain
For the protein B6, the “other: resting membrane potential” value in the data set “TEVC, Xenopus oocytes” (control: DMSO vehicle) is reported as “changes”.

B7: hTREK-1 / hK2P2.1: N110Q/N134Q (protein)
parent chain: B1 parent chain
Take B7: in data set [1], the “other: channel current, percent_of_wt” value is recorded as “decreases, a current reduction of 65.5 ± 0.7 % in nonglycosylated subunits”. Besides, in “TEVC, Xenopus oocytes” (control: wild type), the “other: resting membrane potential” value is on record as “changes”. Further, in data set [2], the “other: current-voltage relationship” value is on record as “no change”. The “other: current at 24 h relative to 48 h (onset of current), other: 24 h current as % of 48 h current” value in data set [3] is “decreases, 31 vs 57 % to 66%”. For the same protein, the “localisation_or_trafficking, other: reduction of surface fraction relative to WT” value in data set [4] is given as “decreases, accompanied by a reduction in surface expression of 70.2%”. Further, the localisation_or_trafficking entry in data set [5] was “no change”.
